Data as given in paper PMC9482650, “Quantitative fragmentomics allow affinity mapping of interactomes” (Nature Communications, 2022).

T1: INTU, Q9ULD6
T1 sequence (Q9ULD6 180-273, limits assumed, looked up): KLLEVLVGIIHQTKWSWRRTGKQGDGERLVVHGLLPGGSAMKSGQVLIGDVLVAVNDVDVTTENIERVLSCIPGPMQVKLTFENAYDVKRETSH

T2: PDZD11, Q5EBL8
T2 sequence (Q5EBL8 42-139, limits assumed, looked up): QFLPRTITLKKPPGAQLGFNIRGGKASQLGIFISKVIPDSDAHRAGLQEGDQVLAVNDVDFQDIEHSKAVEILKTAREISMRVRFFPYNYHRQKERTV

T3: LIN7B, Q9HAP6
T3 sequence (Q9HAP6 88-185, limits assumed, looked up): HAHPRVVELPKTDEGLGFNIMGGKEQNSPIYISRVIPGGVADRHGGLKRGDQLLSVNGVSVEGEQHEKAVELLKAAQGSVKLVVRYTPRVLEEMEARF

T4: CNKSR1, Q969H4
T4 sequence (Q969H4 191-295, limits assumed, looked up): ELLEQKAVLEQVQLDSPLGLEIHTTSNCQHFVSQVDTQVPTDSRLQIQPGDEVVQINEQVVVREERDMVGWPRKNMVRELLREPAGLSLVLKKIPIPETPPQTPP

T5: PARD6B, Q9BYG5
T5 sequence (Q9BYG5 152-260, limits assumed, looked up): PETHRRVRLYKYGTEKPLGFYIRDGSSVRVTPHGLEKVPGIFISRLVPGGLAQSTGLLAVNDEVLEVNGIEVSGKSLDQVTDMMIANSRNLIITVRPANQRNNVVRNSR

T6: PREX2_2, Q70Z35
T6 sequence (Q70Z35 672-764, limits assumed, looked up): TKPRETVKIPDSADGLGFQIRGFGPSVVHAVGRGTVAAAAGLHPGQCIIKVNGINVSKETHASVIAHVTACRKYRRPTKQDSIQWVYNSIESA

T7: SNTB2, Q13425
T7 sequence (Q13425 110-208, limits assumed, looked up): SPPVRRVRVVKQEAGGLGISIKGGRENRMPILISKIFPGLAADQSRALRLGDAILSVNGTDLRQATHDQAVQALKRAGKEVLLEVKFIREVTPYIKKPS

T8: MPDZ_2, O75970
T8 sequence (O75970 252-347, limits assumed, looked up): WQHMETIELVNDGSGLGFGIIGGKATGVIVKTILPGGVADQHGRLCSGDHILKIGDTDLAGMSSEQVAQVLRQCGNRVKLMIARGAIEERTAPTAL

T9: DFNB31_1, Q9P202
T9 sequence (Q9P202 135-233, limits assumed, looked up): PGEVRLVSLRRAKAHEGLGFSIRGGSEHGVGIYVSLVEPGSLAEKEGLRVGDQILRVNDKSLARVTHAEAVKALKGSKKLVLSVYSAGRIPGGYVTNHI

T10: MPDZ_6, O75970
T10 sequence (O75970 1003-1099, limits assumed, looked up): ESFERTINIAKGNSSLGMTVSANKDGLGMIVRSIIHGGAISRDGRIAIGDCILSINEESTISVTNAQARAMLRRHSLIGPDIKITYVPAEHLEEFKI

T11: PDZRN3_2, Q9UPQ7
T11 sequence (Q9UPQ7 414-513, limits assumed, looked up): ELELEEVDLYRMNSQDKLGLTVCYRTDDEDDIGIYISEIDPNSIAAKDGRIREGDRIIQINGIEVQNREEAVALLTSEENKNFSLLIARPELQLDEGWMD

T12: NHERF1_2, O14745
T12 sequence (O14745 149-244, limits assumed, looked up): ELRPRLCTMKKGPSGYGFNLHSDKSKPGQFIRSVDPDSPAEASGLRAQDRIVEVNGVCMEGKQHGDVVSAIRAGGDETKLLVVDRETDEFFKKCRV

T13: PARD6G, Q9BYG4
T13 sequence (Q9BYG4 153-261, limits assumed, looked up): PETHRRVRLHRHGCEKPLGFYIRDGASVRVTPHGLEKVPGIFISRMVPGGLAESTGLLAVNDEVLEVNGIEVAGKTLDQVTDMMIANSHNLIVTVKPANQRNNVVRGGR

T14: MPP1, Q00013
T14 sequence (Q00013 66-162, limits assumed, looked up): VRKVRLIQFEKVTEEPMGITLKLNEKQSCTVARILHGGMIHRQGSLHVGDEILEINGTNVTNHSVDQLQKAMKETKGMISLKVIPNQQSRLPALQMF

T15: TJP3_2, O95049
T15 sequence (O95049 190-282, limits assumed, looked up): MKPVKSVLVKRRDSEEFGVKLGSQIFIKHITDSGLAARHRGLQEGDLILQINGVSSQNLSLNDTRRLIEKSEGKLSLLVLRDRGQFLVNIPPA


Tests used:
Test in all cases: holdup assay
Parameters in all cases: key: below the threshold = too weak to quantify, mostly under pKd 3.1 to 4
Conditions in all cases: plain residues with an end cap or a label only (N-terminal biotin on a linker: ttds)
[1] = target: NHERF2_1, Q15599
NHERF2_1, Q15599, sequence (Q15599 9-91): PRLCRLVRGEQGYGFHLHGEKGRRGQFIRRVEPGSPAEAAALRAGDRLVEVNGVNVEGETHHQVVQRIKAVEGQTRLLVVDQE

[2] = target: T1, INTU, Q9ULD6
[3] = target: LMO7, Q8WWI1
LMO7, Q8WWI1, sequence (Q8WWI1 1037-1138): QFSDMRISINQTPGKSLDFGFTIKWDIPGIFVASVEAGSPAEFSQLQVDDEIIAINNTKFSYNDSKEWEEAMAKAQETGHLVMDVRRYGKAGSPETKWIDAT

[4] = target: T2, PDZD11, Q5EBL8
[5] = target: T3, LIN7B, Q9HAP6
[6] = target: MAGI3_5, Q5TCQ9
MAGI3_5, Q5TCQ9, sequence (Q5TCQ9 847-941): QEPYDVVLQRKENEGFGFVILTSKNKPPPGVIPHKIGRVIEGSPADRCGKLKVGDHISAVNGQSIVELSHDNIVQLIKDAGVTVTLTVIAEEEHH

[7] = target: T4, CNKSR1, Q969H4
[8] = target: T5, PARD6B, Q9BYG5
[9] = target: T6, PREX2_2, Q70Z35
[10] = target: T7, SNTB2, Q13425
[11] = target: T8, MPDZ_2, O75970
[12] = target: T9, DFNB31_1, Q9P202
[13] = target: T10, MPDZ_6, O75970
[14] = target: RIMS1, Q86UR5
RIMS1, Q86UR5, sequence (Q86UR5 584-692): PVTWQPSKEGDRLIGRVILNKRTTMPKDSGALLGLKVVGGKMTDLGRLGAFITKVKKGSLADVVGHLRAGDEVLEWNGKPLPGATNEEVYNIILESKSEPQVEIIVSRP

[15] = target: PDLIM4, P50479
PDLIM4, P50479, sequence (P50479 1-83): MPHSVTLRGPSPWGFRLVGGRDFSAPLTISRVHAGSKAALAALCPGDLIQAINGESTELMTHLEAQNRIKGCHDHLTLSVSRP

[16] = target: MAGI3_3, Q5TCQ9
MAGI3_3, Q5TCQ9, sequence (Q5TCQ9 572-655): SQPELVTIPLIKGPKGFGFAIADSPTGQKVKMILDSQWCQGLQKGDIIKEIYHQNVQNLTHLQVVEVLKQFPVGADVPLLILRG

[17] = target: T11, PDZRN3_2, Q9UPQ7
[18] = target: T12, NHERF1_2, O14745
[19] = target: PDZD9, Q8IXQ8
PDZD9, Q8IXQ8, sequence (Q8IXQ8 23-120): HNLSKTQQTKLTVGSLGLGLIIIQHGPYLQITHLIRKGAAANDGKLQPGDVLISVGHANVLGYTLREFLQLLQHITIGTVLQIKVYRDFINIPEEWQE

[20] = target: T13, PARD6G, Q9BYG4
[21] = target: T14, MPP1, Q00013
[22] = target: T15, TJP3_2, O95049

Row | Binder | pKd [1] | pKd [2] | pKd [3] | pKd [4] | pKd [5] | pKd [6] | pKd [7] | pKd [8] | pKd [9] | pKd [10] | pKd [11] | pKd [12] | pKd [13] | pKd [14] | pKd [15] | pKd [16] | pKd [17] | pKd [18] | pKd [19] | pKd [20] | further results
1 | PKTPPTDTSV [KIR3DL3, Q8N743] | below the threshold | below the threshold | below the threshold | 4.3 | below the threshold | below the threshold | below the threshold | below the threshold | below the threshold | below the threshold | below the threshold | 3.69 | below the threshold | below the threshold | below the threshold | below the threshold | below the threshold | below the threshold | below the threshold | below the threshold | pKd [21]: below the threshold; pKd [22]: below the threshold
2 | QSARYRDTEL [TJP2, Q9UDY2] | below the threshold | below the threshold | below the threshold | below the threshold | below the threshold | below the threshold | below the threshold | below the threshold | below the threshold | below the threshold | below the threshold | 3.57 | below the threshold | below the threshold | below the threshold | below the threshold | below the threshold | below the threshold | below the threshold | below the threshold | pKd [21]: below the threshold; pKd [22]: below the threshold
3 | STLTIFETAL [ABCC4, O15439] | 4.83 | below the threshold | below the threshold | 4.46 | 4.44 | 4.39 | below the threshold | below the threshold | below the threshold | 4.49 | below the threshold | 4.63 | below the threshold | below the threshold | below the threshold | below the threshold | below the threshold | below the threshold | below the threshold | below the threshold | pKd [21]: below the threshold; pKd [22]: below the threshold
